Laboratory results taken from PMC4188090, “Crystallization and preliminary X-ray diffraction analyses of the redox-controlled complex of terminal oxygenase and ferredoxin components in the Rieske nonhaem iron oxygenase carbazole 1,9a-dioxygenase” (Acta Crystallographica. Section F, Structural Biology …, 2014).

B1: ferredoxin (Fd) component of carbazole 1,9a-dioxygenase (CARDO) from Pseudomonas resinovorans CA10, oxidized state (natural protein)
chain: MNQIWLKVCAASDMQPGTIRRVNRVGAAPLAVYRVGDQFYATEDTCTHGIASLSEGTLDGDVIECPFHGGAFNVCTGMPASSPCTVPLGVFEVEVKEGEVYVAGEKK
notes: ferredoxin component (Fd) of carbazole 1,9a-dioxygenase, Pseudomonas resinovorans CA10; histidine-tagged; Holds a Rieske-type [2Fe-2S] cluster (oxidized in this experiment); Called a monomer in the crystal; Construct as in earlier work (Ashikawa et al., 2005; Matsuzawa et al., 2013); also called Fdox; oxidized Fd; source: E. coli BL21(DE3), purified (metal-chelation chromatography, gel filtration)
B2: terminal oxygenase (Oxy) component of carbazole 1,9a-dioxygenase (CARDO) from Janthinobacterium sp. J3, reduced state (enzyme, UniProt Q84II6 1-384, looked up)
chain: MANVDEAILKRVKGWAPYVDAKLGFRNHWYPVMFSKEINEGEPKTLKLLGENLLVNRIDGKLYCLKDRCLHRGVQLSVKVECKTKSTITCWYHAWTYRWEDGVLCDILTNPTSAQIGRQKLKTYPVQEAKGCVFIYLGDGDPPPLARDTPPNFLDDDMEILGKNQIIKSNWRLAVENGFDPSHIYIHKDSILVKDNDLALPLGFAPGGDRKQQTRVVDDDVVGRKGVYDLIGEHGVPVFEGTIGGEVVREGAYGEKIVANDISIWLPGVLKVNPFPNPDMMQFEWYVPIDENTHYYFQTLGKPCANDEERKKYEQEFESKWKPMALEGFNNDDIWAREAMVDFYADDKGWVNEILFESDEAIVAWRKLASEHNQGIQTQAHVSG
notes: terminal oxygenase component (Oxy) of carbazole 1,9a-dioxygenase, Janthinobacterium sp; J3; histidine-tagged; Holds a Rieske-type [2Fe-2S] cluster (reduced in this experiment) and a nonhaem iron centre; Trimer in the crystal; Construct as in earlier work (Ashikawa et al., 2005; Matsuzawa et al., 2013); also called Oxyred; reduced Oxy; source: E. coli BL21(DE3), purified (metal-chelation …)

Legend:
[1] = biological target: B2; assay: crystal structure; Oxyred and Fdox mixed in a 1:3 molar ratio with 10% glycerol, anaerobic, hanging-drop vapour diffusion at 293 K, 0.1 M sodium cacodylate pH 5.7, 14% (w/v) PEG 3350; dissolved crystals checked by SDS-PAGE and anti-His Western blot; data to 2.25 A, molecular replacement with PDB 2de5 (preliminary); details: both partners purified
[2] = biological target: the molecule itself; assay: as above

| Binder | stoichiometry N [1] | stoichiometry N [2] |
| --- | --- | --- |
| B1 | 2 molecules of the Fd monomer per one Oxy trimer | – |
| B2 | – | 3 |
